Series [1] addresses chicken ZP1 ZP-N1 domain, recombinant, wild type (chicken). In words: non-reducing against reducing SDS-PAGE with immunoblot; conditioned medium of transfected HEK293 cells, anti-5His immunoblot; shows only covalent (disulphide-bonded) oligomers.
The target is the same in series [2]. As to the kind of experiment: SEC; IMAC-purified protein, analytical SEC at 4 °C in 20 mM Na-HEPES pH 7.8, 150 mM NaCl (HiLoad 26/600 Superdex 75 pg or Superdex 75 Increase 10/300 GL), fractions on Coomassie-stained SDS-PAGE.
Series [3] has as its target chicken ZP1, full length, 6His-tagged (chicken). In words: non-reducing against reducing SDS-PAGE with immunoblot; conditioned medium of transfected HEK293 cells, anti-5His immunoblot; shows only covalent (disulphide-bonded) oligomers.
For series [4], the target named is chicken ZP4 ZP-N1 domain, 6His-tagged (chicken). As to the kind of experiment: SEC; IMAC-purified protein, analytical SEC at 4 °C in 20 mM Na-HEPES pH 7.8, 150 mM NaCl (HiLoad 26/600 Superdex 75 pg or Superdex 75 Increase 10/300 GL), fractions on Coomassie-stained SDS-PAGE.
Series [5] concerns the target ~21 kDa N-terminal fragment of native chicken ZP1 (chicken). In words: non-reducing against reducing SDS-PAGE with immunoblot; SEC fractions (Sephacryl S-300 HR) of chicken egg coat solubilised by sperm protease, anti-cZP1 N-terminal fragment polyclonal; bands confirmed by MALDI-MS/MS.
Series [6] deals with the molecule itself. In words: non-reducing against reducing SDS-PAGE with immunoblot; conditioned medium of transfected HEK293 cells, anti-5His immunoblot; shows only covalent (disulphide-bonded) oligomers.
Series [7] deals with the molecule itself. As to the kind of experiment: SEC; IMAC-purified protein, analytical SEC at 4 °C in 20 mM Na-HEPES pH 7.8, 150 mM NaCl (HiLoad 26/600 Superdex 75 pg or Superdex 75 Increase 10/300 GL), fractions on Coomassie-stained SDS-PAGE.

In the case of “chicken ZP1 ZP-N1 domain, recombinant, wild type (domain or fragment)”, the stoichiometry N in series [1] and in series [2] was 2 throughout.
On to “chicken ZP1, full length, 6His-tagged (natural protein)”, for which the stoichiometry N in series [3] is 2.
“chicken ZP4 ZP-N1 domain, 6His-tagged (from UniProt A0A8V0ZLW5 1-148) (domain or fragment)”: in series [4], the stoichiometry N was determined as 2.
“~21 kDa N-terminal fragment of native chicken ZP1 (domain or fragment)” registered a stoichiometry N in series [5] of 2.

B1: human ZP1, wild type, 6His-tagged (natural protein, UniProt P60852 26-553, looked up)
chain: RWLQPDPGLPGLRHSYDCGIKGMQLLVFPRPGQTLRFKVVDEFGNRFDVNNCSICYHWVTSRPQEPAVFSADYRGCHVLEKDGRFHLRVFMEAVLPNGRVDVAQDATLICPKPDPSRTLDSQLAPPAMFSVSTPQTLSFLPTSGHTSQGSGHAFPSPLDPGHSSVHPTPALPSPGPGPTLATLAQPHWGTLEHWDVNKRDYIGTHLSQEQCQVASGHLPCIVRRTSKEACQQAGCCYDNTREVPCYYGNTATVQCFRDGYFVLVVSQEMALTHRITLANIHLAYAPTSCSPTQHTEAFVVFYFPLTHCGTTMQVAGDQLIYENWLVSGIHIQKGPQGSITRDSTFQLHVRCVFNASDFLPIQASIFPPPSPAPMTQPGPLRLELRIAKDETFSSYYGEDDYPIVRLLREPVHVEVRLLQRTDPNLVLLLHQCWGAPSANPFQQPQWPILSDGCPFKGDSYRTQMVALDGATPFQSHYQRFTVATFALLDSGSQRALRGLVYLFCSTSACHTSGLETCSTACSTGTTRQ
notes: human zona pellucida glycoprotein 1 (hZP1), wild type, synthetic cDNA in pHLsec3; the secreted form in the medium was analysed; also called hZP1; full-length hZP1; source: HEK293T, transiently transfected, secreted into the conditioned medium
For B1, in series [6], the “stoichiometry N” value came out at 2.

B2: human ZP1 ZP-N1 domain, H102 mutant (domain or fragment)
chain: RWLQPDPGLPGLRHSYDCGIKGMQLLVFPRPGQTLRFKVVDEFGNRFDVNNCSICYHWVTSRPQEPAVFSADYRGCAVLEKDGRFHLRVFMEAVLPNGRVDVAQDATLICPKPDPSRTLDSQLA
Take B2: in series [6], the “stoichiometry N” value was 2.

B3: human ZP1 ZP-N1 domain, His-tagged, wild type (domain or fragment, UniProt P60852 26-149, looked up)
chain: RWLQPDPGLPGLRHSYDCGIKGMQLLVFPRPGQTLRFKVVDEFGNRFDVNNCSICYHWVTSRPQEPAVFSADYRGCHVLEKDGRFHLRVFMEAVLPNGRVDVAQDATLICPKPDPSRTLDSQLA
notes: signal peptide in the construct; human ZP1 ZP-N1 domain, M1-A149; also called hZP1-N1; hZP1_(M1-A149); source: HEK293T, transiently transfected; conditioned medium, and purified (IMAC, SEC); not shown: His, C-terminal, kept
For the molecule B3, the “stoichiometry N” value in series [6] was 2.

B4: human ZP1 ZP-N1 domain, H82 mutant (domain or fragment)
chain: RWLQPDPGLPGLRHSYDCGIKGMQLLVFPRPGQTLRFKVVDEFGNRFDVNNCSICYAWVTSRPQEPAVFSADYRGCHVLEKDGRFHLRVFMEAVLPNGRVDVAQDATLICPKPDPSRTLDSQLA
With B4, in series [6], the “stoichiometry N” value is 2.

B5: mouse ZP1 ZP-N1 domain, 6His-tagged, wild type (domain or fragment, UniProt Q62005 21-141, looked up)
chain: QRLHLEPGFEYSYDCGVRGMQLLVFPRPNQTVQFKVLDEFGNRFEVNNCSICYHWVTSEAQEHTVFSADYKGCHVLEKDGRFHLRVFIQAVLPNGRVDIAQDVTLICPKPDHTVTPDPYLA
notes: signal peptide in the construct; mouse ZP1 ZP-N1 domain, M1-A141, in pHLsec3; Heterogeneous glycosylation at N49 and N68 gives two bands on SDS-PAGE; also called mZP1-N1; mZP1-N1_(M1-A141); source: HEK293, transiently transfected; conditioned medium, and purified (IMAC, SEC); not shown: 6His, C-terminal, kept
With B5, the “stoichiometry N” value in series [7] was determined as 2.

These data come from article PMC6626044, “Molecular basis of egg coat cross-linking sheds light on ZP1-associated female infertility” (Nature Communications, 2019).
